Results reported in publication PMC10896730.

Molecular target: oxidative phosphorylation (OXPHOS) complex III (CIII), all subunits (mouse (endogenous in skeletal muscle)) (UniProt Q9CZ13)
Assay: affinity purification with mass spectrometry; IP of UQCRC2 from mouse hindlimb Skm extracts, LC–MS; stoichiometry from the slopes of protein abundance against effective number of tryptic peptides; approximate

Sequence of UniProt Q9CZ13 (Q9CZ13 whole entry, looked up, tested part not stated, one chain of several): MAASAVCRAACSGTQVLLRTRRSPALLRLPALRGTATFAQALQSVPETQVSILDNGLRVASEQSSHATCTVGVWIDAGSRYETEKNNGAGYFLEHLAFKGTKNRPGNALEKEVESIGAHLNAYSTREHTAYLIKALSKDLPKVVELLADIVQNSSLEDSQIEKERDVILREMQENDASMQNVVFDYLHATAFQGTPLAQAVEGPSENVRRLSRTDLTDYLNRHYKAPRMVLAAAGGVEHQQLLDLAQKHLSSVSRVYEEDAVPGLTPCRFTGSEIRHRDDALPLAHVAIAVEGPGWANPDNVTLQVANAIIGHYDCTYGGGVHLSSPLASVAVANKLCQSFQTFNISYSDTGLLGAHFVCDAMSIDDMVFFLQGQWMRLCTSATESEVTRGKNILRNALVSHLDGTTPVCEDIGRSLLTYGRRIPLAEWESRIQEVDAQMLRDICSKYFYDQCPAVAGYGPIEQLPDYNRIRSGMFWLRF

stoichiometry N (ETF complex per CIII complex): 0.5
B1: electron-transfer flavoprotein dehydrogenase (ETFDH) (natural protein)
chain: SSTSAVPQITTHYTVHPREKDKRWEGVNMERFAEEADVVIVGAGPAGLSAAIRLKQLAAEQGKDIRVCLVEKAAQIGAHTLSGACLDPAAFKELFPDWKEKGAPLNTPVTEDRFAILTEKHRIPVPILPGLPMNNHGNYIVRLGHLVSWMGEQAEALGVEVYPGYAAAEVLYHEDGSVKGIATNDVGIQKDGAPKTTFERGLELHAKVTVFAEGCHGHLAKQLYKKFDLRASCDAQTYGIGLKELWIIDEKKWKPGRVDHTVGWPLDRHTYGGSFLYHLNEGEPLVAVGFVVGLDYQNPYLSPFREFQRWKHHPSIQPTLEGGKRIAYGARALNEGGLQSIPKLTFPGGLLIGCSPGFMNVPKIKGTHTAMKSGSLAAESIFKQLTSENLQSKTTGLHVTEYEDNLKQSWVWKELHAVRNIRPSCHGILGVYGGMIYTGIFYWILRGMEPWTLKHKGSDSDQLKPAKDCTPIEYPKPDGQISFDLLSSVALSGTNHEHDQPAHLTLKDDSIPVNRNLSIYDGPEQRFCPAGVYEFVPLEQGDGFRLQINAQNCVHCKTCDIKDPSQNINWVVPEGGGGPAYNGM
